Laboratory results published in publication PMC7360973 (2020).
Ends that are not written are not given here.

These binders were tested against Human Hsc70 (HSPA8) (human, UniProt P11142 1-646) (assay: FP).
Human Hsc70 (HSPA8), sequence (P11142 whole entry): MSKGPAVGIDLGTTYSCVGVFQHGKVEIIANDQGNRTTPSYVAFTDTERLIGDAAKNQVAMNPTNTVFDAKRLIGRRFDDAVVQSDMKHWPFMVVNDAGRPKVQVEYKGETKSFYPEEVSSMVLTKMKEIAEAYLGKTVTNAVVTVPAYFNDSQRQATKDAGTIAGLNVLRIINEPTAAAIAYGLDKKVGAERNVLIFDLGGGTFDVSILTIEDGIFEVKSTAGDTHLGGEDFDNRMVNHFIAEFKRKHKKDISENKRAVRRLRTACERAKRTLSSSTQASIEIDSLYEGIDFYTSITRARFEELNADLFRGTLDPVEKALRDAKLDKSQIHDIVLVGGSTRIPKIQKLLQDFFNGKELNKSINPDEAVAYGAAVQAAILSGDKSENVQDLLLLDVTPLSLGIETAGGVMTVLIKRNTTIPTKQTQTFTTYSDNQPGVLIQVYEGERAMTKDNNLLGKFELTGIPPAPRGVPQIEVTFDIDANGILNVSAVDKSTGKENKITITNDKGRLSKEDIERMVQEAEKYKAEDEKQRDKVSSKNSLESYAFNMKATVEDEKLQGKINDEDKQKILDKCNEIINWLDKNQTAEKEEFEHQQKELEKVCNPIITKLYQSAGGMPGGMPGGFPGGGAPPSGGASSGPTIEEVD

Kd, > 60 µM:
GVKRKSPSMSNC(fluorescein‑5‑maleimide) [Hsf1 peptide G204‐N214‐C_SSS], PKYSRQFSLEHVHC(fluorescein‑5‑maleimide) [Hsf1 peptide P223‐H235‐C], NRSSGSKRKC(fluorescein‑5‑maleimide) [Hsf1 peptide N200‐K208‐C_SSS], NMYGFRKVVHIEQC(fluorescein‑5‑maleimide) [Hsf1 peptide N74‐Q86‐C]
